In data set [1] the target is T1, MBD3sc (human, UniProt O95983 1-249+Q86YP4:137-178, internal_change). Put plainly: fluorescence anisotropy; FA: 50 mM Hepes pH 7.5, 100 mM NaCl, 1 mM MgCl2, 10 nM DNA, temperature not stated; SPR: 50 mM Hepes pH 7.5, 150 mM NaCl, 1 mM MgCl2, 1 mM TCEP, 0.05% Tween-20; NMR: 10 mM NaPO4 pH 6.5, 150 mM NaCl, 1 mM DTT, 10% 2H2O, 25 C. The settings on record: protein: recombinant; tags: N-terminal thioredoxin-His6-TEV site (removal stated only for NMR); label: 5' 6-FAM on strand 1; blunt.

Data set [2] deals with T2, MBD2sc (human, UniProt Q9UBB5 150-393+Q86YP4:137-178, internal_change). The data set is described as above. To be noted: protein: recombinant; tags: N-terminal thioredoxin-His6-TEV site (removal stated only for NMR); label: 5' 6-FAM on strand 1; blunt.
Data set [3] addresses T1, MBD3sc. Put plainly: SPR; FA: 50 mM Hepes pH 7.5, 100 mM NaCl, 1 mM MgCl2, 10 nM DNA, temperature not stated; SPR: 50 mM Hepes pH 7.5, 150 mM NaCl, 1 mM MgCl2, 1 mM TCEP, 0.05% Tween-20; NMR: 10 mM NaPO4 pH 6.5, 150 mM NaCl, 1 mM DTT, 10% 2H2O, 25 C. The settings on record: protein: recombinant; tags: N-terminal thioredoxin-His6-TEV site (removal stated only for NMR); blunt. (In general: Surface plasmon resonance follows binding to a sensor surface in real time, without labels.)

The target of data set [4] is T2, MBD2sc. The description is as above. To be noted: protein: recombinant; tags: N-terminal thioredoxin-His6-TEV site (removal stated only for NMR); blunt.
Data set [5] addresses T3, MBD2sc (2H,15N, tag cleaved) (human, UniProt Q9UBB5 150-393+Q86YP4:137-178, internal_change). Nature of the data set: NMR; FA: 50 mM Hepes pH 7.5, 100 mM NaCl, 1 mM MgCl2, 10 nM DNA, temperature not stated; SPR: 50 mM Hepes pH 7.5, 150 mM NaCl, 1 mM MgCl2, 1 mM TCEP, 0.05% Tween-20; NMR: 10 mM NaPO4 pH 6.5, 150 mM NaCl, 1 mM DTT, 10% 2H2O, 25 C. To be noted: protein: recombinant; tags: none (thioredoxin-His6 removed by TEV); blunt.

Data set [6] deals with T3, MBD2sc (2H,15N, tag cleaved). Nature of the data set: NMR; fast exchange between both sites; FA: 50 mM Hepes pH 7.5, 100 mM NaCl, 1 mM MgCl2, 10 nM DNA, temperature not stated; SPR: 50 mM Hepes pH 7.5, 150 mM NaCl, 1 mM MgCl2, 1 mM TCEP, 0.05% Tween-20; NMR: 10 mM NaPO4 pH 6.5, 150 mM NaCl, 1 mM DTT, 10% 2H2O, 25 C. To be noted: protein: recombinant; tags: none (thioredoxin-His6 removed by TEV); blunt.

Here are results for 8 molecules from article PMC9520026, “Densely methylated DNA traps Methyl-CpG–binding domain protein 2 but permits free diffusion by Methyl-CpG–binding domain protein 3”.

T1 sequence (O95983 other isoform, or with tags, fused parts or gaps): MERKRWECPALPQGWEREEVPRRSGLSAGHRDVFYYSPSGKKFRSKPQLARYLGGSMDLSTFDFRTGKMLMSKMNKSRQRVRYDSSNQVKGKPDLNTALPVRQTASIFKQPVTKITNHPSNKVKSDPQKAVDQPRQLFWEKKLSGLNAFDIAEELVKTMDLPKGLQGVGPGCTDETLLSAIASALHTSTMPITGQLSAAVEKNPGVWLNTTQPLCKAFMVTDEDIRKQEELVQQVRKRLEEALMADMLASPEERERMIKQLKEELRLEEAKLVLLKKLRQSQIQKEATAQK
T3 sequence (Q9UBB5 other isoform, or with tags, fused parts or gaps): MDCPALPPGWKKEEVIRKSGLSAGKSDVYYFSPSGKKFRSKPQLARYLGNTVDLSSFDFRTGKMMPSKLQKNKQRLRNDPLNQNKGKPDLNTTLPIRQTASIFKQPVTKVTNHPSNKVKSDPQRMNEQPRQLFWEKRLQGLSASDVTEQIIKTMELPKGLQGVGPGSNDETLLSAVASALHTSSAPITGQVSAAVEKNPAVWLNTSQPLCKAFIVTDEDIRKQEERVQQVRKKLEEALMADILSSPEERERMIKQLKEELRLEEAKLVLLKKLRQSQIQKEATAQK
T2 sequence (Q9UBB5 other isoform, or with tags, fused parts or gaps): as above

B1: 17 bp mCpG FAM (dsDNA)
DNA 1: CTGCCGCCGAGCGCCTC
DNA 2: GAGGCGCTCGGCGGCAG
modifications: 5-methylcytosine at C8 of strand 1 and C9 of strand 2 (symmetric)
As usually defined, the Kd is the concentration at which binding is half-saturated. In the case of B1, the figures for the Kd in the data set with MBD3sc [1] and with MBD2sc [2] were 5.9 ± 0.4 µM and 0.007 ± 0.002 µM, respectively.

B2: 17 bp CpG-free FAM (dsDNA)
DNA 1: CTGGCCCCAGGGCCCTC
DNA 2: GAGGGCCCTGGGGCCAG
For the molecule B2, the equilibrium dissociation constant (Kd) turned out to be 14.2 ± 0.3 µM with MBD3sc [1] and 9.1 ± 0.4 µM with MBD2sc [2].

B3: 17 bp CpG biotin (SPR) (dsDNA)
DNA 1: CTGCCGCCGAGCGCCTC
DNA 2: GAGGCGCTCGGCGGCAG
With B3, the Kd stood at 1.02 ± 0.01 µM with MBD3sc [3] and 1.24 ± 0.08 µM in the data set with MBD2sc [4].

B4: 38 bp, first CpG methylated (dsDNA)
DNA 1: GGAGGCGCTCGGCGGCAGCCTGGAACGGAATTCTTCTA
DNA 2: TAGAAGAATTCCGTTCCAGGCTGCCGCCGAGCGCCTCC
modifications: 5-methylcytosine at C10 of strand 1 and C28 of strand 2
In the case of B4, the binding result in data set [5] was “binds”.

B5: 38 bp, second CpG methylated (dsDNA)
DNA 1: B4 DNA 1
DNA 2: B4 DNA 2
modifications: 5-methylcytosine at C26 of strand 1 and C12 of strand 2
For B5, the binding result in data set [5] is “binds”.

B6: 38 bp, both CpG methylated (dsDNA)
DNA 1: B4 DNA 1
DNA 2: B4 DNA 2
modifications: 5-methylcytosine at C10, C26 of strand 1 and C12, C28 of strand 2
In the case of B6, the binding result in data set [6] is reported as “binds”.

B7: 17 bp CpG FAM (unmethylated) (dsDNA)
DNA 1: CTGCCGCCGAGCGCCTC
DNA 2: GAGGCGCTCGGCGGCAG
Take B7: the dissociation constant Kd was determined as 8.1 ± 0.4 µM with MBD3sc [1] and 2.8 ± 0.1 µM in the data set with MBD2sc [2].

B8: 17 bp mCpG biotin (SPR) (dsDNA)
DNA 1: CTGCCGCCGAGCGCCTC
DNA 2: GAGGCGCTCGGCGGCAG
modifications: 5-methylcytosine at C8 of strand 1 and C9 of strand 2
With B8, the Kd with MBD3sc [3] is 1.2 ± 0.2 µM; with MBD2sc [4], 0.011 ± 0.001 µM.
